From paper PMC3335857, “Heme Oxygenase Isoforms Differ in Their Subcellular Trafficking during Hypoxia and Are Differentially Modulated by Cytochrome P450 Reductase” (PLoS ONE, 2012) come the findings set out here.

This data set concerns the molecule itself. The data set is described as follows: SEC; 150 µg purified S-HO variant (expressed alone, or full length S-HO co-expressed and co-purified with CPR) on Superdex 200 10/300 GL; 50 mM TEA-HCl, 250 mM NaCl, pH 8.0; peaks blotted with HO antibodies. On the technique in general: Size exclusion chromatography separates by hydrodynamic size, large species first.

B1: Strep-tagged full length heme oxygenase-1 (S-HO-1) (enzyme, human, UniProt P09601 1-288, looked up)
chain: MERPQPDSMPQDLSEALKEATKEVHTQAENAEFMRNFQKGQVTRDGFKLVMASLYHIYVALEEEIERNKESPVFAPVYFPEELHRKAALEQDLAFWYGPRWQEVIPYTPAMQRYVKRLHEVGRTEPELLVAHAYTRYLGDLSGGQVLKKIAQKALDLPSSGEGLAFFTFPNIASATKFKQLYRSRMNSLEMTPAVRQRVIEEAKTAFLLNIQLFEELQELLTHDTKDQSPSRAPGLRQRASNKVQDSAPVETPRGKPPLNTRSQAPLLRWVLTLSFLVATVAVGLYAM
notes: human heme oxygenase 1 (HO-1), cloned from human placenta cDNA, full length; also called full length HO-1; source: Sf9, recombinant baculovirus; not shown: Strep-tag II, N-terminal, kept
Turning to B1, the binding result was “binds”.

B2: Strep-tagged full length heme oxygenase-2 (S-HO-2) (enzyme, human, UniProt P30519 1-316, looked up)
chain: MSAEVETSEGVDESEKKNSGALEKENQMRMADLSELLKEGTKEAHDRAENTQFVKDFLKGNIKKELFKLATTALYFTYSALEEEMERNKDHPAFAPLYFPMELHRKEALTKDMEYFFGENWEEQVQCPKAAQKYVERIHYIGQNEPELLVAHAYTRYMGDLSGGQVLKKVAQRALKLPSTGEGTQFYLFENVDNAQQFKQLYRARMNALDLNMKTKERIVEEANKAFEYNMQIFNELDQAGSTLARETLEDGFPVHDGKGDMRKCPFYAAEQDKGALEGSSCPFRTAMAVLRKPSLQFILAAGVALAAGLLAWYYM
notes: human heme oxygenase 2 (HO-2), cloned from human placenta cDNA, full length; also called full length HO-2; source: Sf9, recombinant baculovirus; not shown: Strep-tag II, N-terminal, kept
In the case of B2, the binding result is recorded as “binds”.
